Data from PMC6683498, “The conserved actinobacterial transcriptional regulator FtsR controls expression of ftsZ and further target genes and influences growth and cell division in Corynebacterium glutamicum”.

Experiments:
[1] = molecular target: FtsR-Strep (FtsR, Cg1631, of Corynebacterium glutamicum ATCC13032 with C-terminal StrepTag-II) (Corynebacterium glutamicum ATCC13032); assay: SEC; affinity-purified FtsR-Strep on Superdex 200 Increase 10/300 GL, buffer W (50 mM Tris-HCl, 250 mM NaCl, pH 7.5), 0.6 mL/min; compared to standard proteins
[2] = molecular target: T1, FtsR-Strep (Corynebacterium glutamicum ATCC13032) (UniProt Q8NQJ2); assay: competition; settings: EMSA: 10 mM Tris-HCl pH 7.5, 30 mM NaCl, 1.5 mM Na2EDTA, room temperature, 30 min; 15% native PAGE in 1x TBE (competition EMSA: 10% gel)
T1 sequence: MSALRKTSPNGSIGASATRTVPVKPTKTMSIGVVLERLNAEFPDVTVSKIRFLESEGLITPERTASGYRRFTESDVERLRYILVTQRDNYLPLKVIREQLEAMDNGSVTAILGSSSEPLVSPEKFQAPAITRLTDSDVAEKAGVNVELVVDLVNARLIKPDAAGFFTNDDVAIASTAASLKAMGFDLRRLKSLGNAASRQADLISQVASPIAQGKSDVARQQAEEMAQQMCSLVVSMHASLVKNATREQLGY

[3] = molecular target: T1, FtsR-Strep (Corynebacterium glutamicum ATCC13032); assay: EMSA; settings: EMSA: 10 mM Tris-HCl pH 7.5, 30 mM NaCl, 1.5 mM Na2EDTA, room temperature, 30 min; 15% native PAGE in 1x TBE (competition EMSA: 10% gel)
FtsR-Strep = molecular target: T2, FtsR-Strep (Corynebacterium glutamicum ATCC13032, UniProt Q8NQJ2 1-252); assay: EMSA; 1 uM DNA; complete shift at 2-fold molar excess of dimer; EMSA: 10 mM Tris-HCl pH 7.5, 30 mM NaCl, 1.5 mM Na2EDTA, room temperature, 30 min; 15% native PAGE in 1x TBE (competition EMSA: 10% gel); settings: protein: recombinant; chain copies: 2; blunt
T2 sequence: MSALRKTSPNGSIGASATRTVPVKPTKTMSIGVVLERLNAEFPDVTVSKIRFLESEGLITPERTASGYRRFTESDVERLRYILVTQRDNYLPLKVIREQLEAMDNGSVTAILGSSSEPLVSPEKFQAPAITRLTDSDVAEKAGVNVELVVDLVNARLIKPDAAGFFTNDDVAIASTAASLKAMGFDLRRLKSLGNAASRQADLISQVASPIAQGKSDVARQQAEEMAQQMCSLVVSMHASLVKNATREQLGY

FtsR-Strep (FtsR, Cg1631, of Corynebacterium glutamicum ATCC13032 with C-terminal StrepTag-II) (natural protein)
stoichiometry N [1]: 2

AGTGCTTCCTGCGGTTATTGCTGTAATCAACGCAATTAAAGCGCAAGATGCGCAGATGACAGAAAGTATCCAGGTAGTGGAAGCTCCGGATCAATTTGATATCTTGCTGAAAATGAATGATGGCCGGGAAATCTACTGGGGATCCTCGGAAAACAACCACGATAAAGCGGTGGCAATGTCGACTGTTTTGAAGCGGGAAGGCCAACGTTGGAACATTAGCTCACCCTCAATGGTGACAGTCCGCTAAAGTGGCTGGGTAG (double strand)
binding [2]: no binding

AGTTCCGGTTCACCCGTTTCCACAACGCGTTTGCCCACCTCAACAACCCTAAAGTAAAGGTTGAGGGTAGCGACACGCCGCTGTAAATGTCCGACACATTGACGTGTTTTTCGCACAAGATATATGTCAGCCGGATTAACACTTTTAGATAAGCTCTCACAGTGCTGACTGCTTATCTGAGATGAAAATAAAAGCAAAATTTTTTTTAGTATCAACTCTTCGAAAGGCGAGACATCGACAATGACCTCACCGAACAACTACCTCGCCAAGA (double strand) [ftsZ promoter 271-bp fragment, Cy3]
binding [3]: binds

AGTTCCGGTTCACCCGTTTCCACAACGCGTTTGCCCACCTCAACAACCCTAAAGTAAAGGTTGAGGGTAGCGACACGCCGCTGTAAATGTCCGACACATTGACGTGTTTTTCGCACAAGATATATGTCAGCCGGATTAACACTTTTAGATAAGCTCTCACAGTGCTGACTGCTTATCTGAGATGAAAATAAAAGCAAAATTTTTTTTAGTATCAACTCTTCGAAAGGCGAGACATCGACAATGACCTCACCGAACAACTACCTCGCCAAGA (double strand) [ftsZ promoter 271-bp fragment, unlabeled specific competitor]
binding [2]: binds

B1: ftsZ promoter 30-bp oligo (dsDNA)
DNA 1: ACAACCCTAAAGTAAAGGTTGAGGGTAGCG
DNA 2: CGCTACCCTCAACCTTTACTTTAGGGTTGT
binding result (FtsR-Strep): binds
